According to patent EP4596580A1 (Staidson (Beijing) Biopharmaceuticals Co., Ltd., dated 2025):

T1: His-human LIGHT (human)
T1 construct: also called His-huLIGHT; free LIGHT
T1 chain: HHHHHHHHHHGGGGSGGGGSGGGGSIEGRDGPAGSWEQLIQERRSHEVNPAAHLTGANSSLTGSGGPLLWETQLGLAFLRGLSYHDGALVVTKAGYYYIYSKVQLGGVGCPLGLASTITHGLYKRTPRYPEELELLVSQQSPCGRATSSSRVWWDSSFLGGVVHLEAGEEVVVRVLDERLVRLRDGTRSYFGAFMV

T2: His-cynomolgus monkey LIGHT (cynomolgus monkey)
T2 construct: also called His-cynoLIGHT
T2 chain: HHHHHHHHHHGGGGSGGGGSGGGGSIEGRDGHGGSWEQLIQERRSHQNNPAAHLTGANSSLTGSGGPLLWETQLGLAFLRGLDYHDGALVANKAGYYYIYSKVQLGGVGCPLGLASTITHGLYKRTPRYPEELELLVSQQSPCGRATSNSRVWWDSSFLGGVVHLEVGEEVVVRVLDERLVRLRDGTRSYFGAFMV


Legend:
His-human LIGHT [1] = target: T1, His-human LIGHT; experiment: ELISA, His-huLIGHT coated
[2] = target: LIGHT on the surface of HEK293-LIGHT stable cells (human, UniProt O43557 1-240); experiment: cell-based or functional assay
His-human LIGHT [3] = target: T1, His-human LIGHT; experiment: cell-based or functional assay
[4] = target: T2, His-cynomolgus monkey LIGHT; experiment: ELISA, His-cynoLIGHT coated
His-human LIGHT [5] = target: T1, His-human LIGHT; experiment: cell-based or functional assay
hFc-human LIGHT = target: T3, hFc-human LIGHT (human); experiment: competition ELISA, LTβR-His coated, hFc-huLIGHT added
T3 construct: also called hFc-huLIGHT

His-human LIGHT [6] = target: T1, His-human LIGHT; experiment: SPR, Biacore 8K, antibody on CM5 chip, human LIGHT

Binder	EC50 (His-human LIGHT [1])	IC50, LTβR NF-κB luciferase reporter, HEK293-LIGHT cells [2]	IC50, LTβR NF-κB luciferase reporter, free LIGHT (His-human LIGHT [3])	EC50 [4]	IC50, HVEM NF-κB luciferase reporter, free LIGHT (His-human LIGHT [5])	IC50 (hFc-human LIGHT)	Kd (His-human LIGHT [6])	koff (His-human LIGHT [6])	kon (His-human LIGHT [6])
hum_LT-m37-3 (antibody, human IgG4, V domains shown, humanized from LT-m37) VH: QVQLVQSGAEVKKPGASVKVSCKASGYSFTGYFINWVRQAPGQGLEWIGRIYPYNVNTFYNQNFKGRATMTADKSTSTAYMELSSLRSEDTAVYYCGRGTHYYGSSGAMDYWGQGTLVTVSS VL: EIVLTQSPATLSVSPGERATLSCKASQNVGTAVAWYQQKPGQSPRLLIYSASNRYTGIPARFSGSGSGTEFTLTISSLQSEDFAVYFCQQYSSYPYTFGGGTKVEIK	0.0875 mg/L	1.79 mg/L	0.399 mg/L	0.0554 nM	0.0747 mg/L	–	–	–	–
hum_LT-m37-1 (antibody, human IgG4, V domains shown, humanized from LT-m37) VH: QVQLVQSGAEVKKPGASVKVSCKASGYSFTGYFINWVRQAPGQSLEWIGRIYPYNVNTFYNQNFKGRATLTADKSTSTAYMELSSLRSEDTAVYYCGRGTHYYGSSGAMDYWGQGTLVTVSS VL: EIVLTQSPATLSVSPGERATLSCKASQNVGTAVAWYQQKPGQSPRLLIYSASNRYTGIPARFSGSGSGTEFTLTISSLQSEDFAVYFCQQYSSYPYTFGGGTKVEIK	0.0662 mg/L	5.39 mg/L	0.269 mg/L	0.0468 nM	0.118 mg/L	0.0754 nM	–	–	–
hum_LT-m37-4 (antibody, human IgG4, V domains shown, humanized from LT-m37) VH: QVQLVQSGAEVKKPGASVKVSCKASGYSFTGYFINWVRQAPGQGLEWIGRIYPYNVNTFYNQNFKGRVTMTADKSTSTAYMELSSLRSEDTAVYYCGRGTHYYGSSGAMDYWGQGTLVTVSS VL: EIVLTQSPATLSVSPGERATLSCKASQNVGTAVAWYQQKPGQSPRLLIYSASNRYTGIPARFSGSGSGTEFTLTISSLQSEDFAVYFCQQYSSYPYTFGGGTKVEIK	0.0859 mg/L	2.56 mg/L	0.129 mg/L	0.0527 nM	0.0677 mg/L	0.0748 nM	0.241 nM	7.1e-05 s⁻¹	295000 M⁻¹ s⁻¹
hum_LT-m37-5 (antibody, human IgG4, V domains shown, humanized from LT-m37) VH: QVQLVQSGAEVKKPGASVKVSCKASGYSFTGYFINWVRQAPGQSLEWIGRIYPYNVNTFYNQNFKGRATLTADKSTSTAYMELSSLRSEDTAVYYCGRGTHYYGSSGAMDYWGQGTLVTVSS VL: EIVMTQSPATLSVSPGERATLSCKASQNVGTAVAWYQQKPGQSPRLLIYSASNRYTGIPARFSGSGSGTEFTLTISSLQSEDFAVYFCQQYSSYPYTFGGGTKVEIK	0.0837 mg/L	2.22 mg/L	0.16 mg/L	0.0513 nM	0.062 mg/L	0.0771 nM	0.0575 nM	6.34e-05 s⁻¹	1.1e+06 M⁻¹ s⁻¹
hum_LT-m37-6 (antibody, human IgG4, V domains shown, humanized from LT-m37) VH: QVQLVQSGAEVKKPGASVKVSCKASGYSFTGYFINWVRQAPGQGLEWIGRIYPYNVNTFYNQNFKGRATLTADKSTSTAYMELSSLRSEDTAVYYCGRGTHYYGSSGAMDYWGQGTLVTVSS VL: EIVMTQSPATLSVSPGERATLSCKASQNVGTAVAWYQQKPGQSPRLLIYSASNRYTGIPARFSGSGSGTEFTLTISSLQSEDFAVYFCQQYSSYPYTFGGGTKVEIK	0.0939 mg/L	1.86 mg/L	0.224 mg/L	0.0588 nM	0.0518 mg/L	0.0753 nM	0.0408 nM	5.25e-05 s⁻¹	1.29e+06 M⁻¹ s⁻¹
